Source: PMC7954794 (2021)

B1: S. cerevisiae Abp1 (full length; SH3 domain 535-592 mutated) / Hua2 (parent complex)
chain 1: MALEPIDYTTHSREIDAEYLKIVRGSDPDTTWLIISPNAKKEYEPESTGSSFHDFLQLFDETKVQYGLARVSPPGSDVEKIIIIGWCPDSAPLKTRASFAANFAAVANNLFKGYHVQVTARDEDDLDENELLMKISNAAGARYSIQTSSKQQGKASTPPVKKSFTPSKSPAPVSKKEPVKTPSPAPAAKISSRVNDNNDDDDWNEPELKERDFDQAPLKPNQSSYKPIGKIDLQKVIAEEKAKEDPRLVQKPTAAGSKIDPSSDIANLKNESKLKRDSEFNSFLGTTKPPSMTESSLKNDDDKVIKGFRNEKSPAQLWAERKAKQNSGNAETKAEAPKPEVPEDEPEGEPDVKDLKSKFEGLAASEKEEEEMENKFAPPPKKSEPTIISPKPFSKPQEPVKAEEAEQPKTDYKKIGNPLPGMHIEADNEEEPEENDDDWDDDEDEAAQPPLPSRNVASGAPVQKEEPEQEEIAPSLPSRNSIPAPKQEEAPEQAPEEEIEEEAEEAAPQLPSRSSAAPPPPPRRATPEKKPKENPWATAEYDYDAAEDNELTFVENDKIINIEFVDDDWWLGELEKDGSKGLFPSNYVSLGN
chain 2: MQQTKFGKMYLDHDSVVEYSEDEIVEADRITLGYKKRLSMIENQMRHLLEDFSLDVQQIEPILADLQKYYDAFLQLLQKRNKSLQCKRSTHQPVPSPMNSQTSTNAKVNLSGKLMKFQLNSVQKFDEENILRILQNKIEFEHYFQIDKGKKQKVLLLAVYQCLNGPTRLHKVLNIEGIIHNNSIRTILGKQVSSSKWTVFLYDVKLVLLAHRQDVPNLETSKMIVRYGDLFPCALYFKDHTAY

Variants of: B1
Experiment: DHFR protein-fragment complementation in yeast (Abp1-DHFR F[1,2] x partner-DHFR F[3]), deep mutational scanning, second methotrexate selection vs reference; S. cerevisiae, DHFR-PCA selection in liquid with methotrexate at 30 C, two 72 h selections (the score uses the second); reference = the pre-selection culture

First: chain 1 V565K
Second: chain 1 V565M
The screen value of the first is lower: -2.9 DMS score: mean over two replicates of log2(f_test/f_ref + 0.5)/ln 2, minus the synonymous-codon median (not a log2 … for the first, -1.83 DMS score: mean over two replicates of log2(f_test/f_ref + 0.5)/ln 2, minus the synonymous-codon median (not a log2 … for the second.

Going from chain 1 V565C to chain 1 N561D, the screen value falls from 0.907 DMS score: mean over two replicates of log2(f_test/f_ref + 0.5)/ln 2, minus the synonymous-codon median (not a log2 … to -0.211 DMS score: mean over two replicates of log2(f_test/f_ref + 0.5)/ln 2, minus the synonymous-codon median (not a log2 ….

First: chain 1 D568T
Second: chain 1 D544E
The screen value of the first is lower: -2.96 DMS score: mean over two replicates of log2(f_test/f_ref + 0.5)/ln 2, minus the synonymous-codon median (not a log2 … for the first, -0.1 DMS score: mean over two replicates of log2(f_test/f_ref + 0.5)/ln 2, minus the synonymous-codon median (not a log2 … for the second.

Going from chain 1 K580I to chain 1 K580C, the screen value falls from -0.165 DMS score: mean over two replicates of log2(f_test/f_ref + 0.5)/ln 2, minus the synonymous-codon median (not a log2 … to -0.508 DMS score: mean over two replicates of log2(f_test/f_ref + 0.5)/ln 2, minus the synonymous-codon median (not a log2 ….

Compared with chain 1 D566K, chain 1 N592H is higher in screen value: -2.34 DMS score: mean over two replicates of log2(f_test/f_ref + 0.5)/ln 2, minus the synonymous-codon median (not a log2 … for the first, -1.31 DMS score: mean over two replicates of log2(f_test/f_ref + 0.5)/ln 2, minus the synonymous-codon median (not a log2 … for the second.

First: chain 1 S579V
Second: chain 1 G591E
The screen value of the first is lower: -0.988 DMS score: mean over two replicates of log2(f_test/f_ref + 0.5)/ln 2, minus the synonymous-codon median (not a log2 … for the first, 1.01 DMS score: mean over two replicates of log2(f_test/f_ref + 0.5)/ln 2, minus the synonymous-codon median (not a log2 … for the second.

Going from chain 1 G591R to chain 1 G591P, the screen value rises from -0.62 DMS score: mean over two replicates of log2(f_test/f_ref + 0.5)/ln 2, minus the synonymous-codon median (not a log2 … to 0.961 DMS score: mean over two replicates of log2(f_test/f_ref + 0.5)/ln 2, minus the synonymous-codon median (not a log2 ….

Going from chain 1 L571E to chain 1 L571F, the screen value falls from 1.04 DMS score: mean over two replicates of log2(f_test/f_ref + 0.5)/ln 2, minus the synonymous-codon median (not a log2 … to 0.614 DMS score: mean over two replicates of log2(f_test/f_ref + 0.5)/ln 2, minus the synonymous-codon median (not a log2 ….

Compared with chain 1 S585R, chain 1 S585A is higher in screen value: -1.55 DMS score: mean over two replicates of log2(f_test/f_ref + 0.5)/ln 2, minus the synonymous-codon median (not a log2 … for the first, 1.11 DMS score: mean over two replicates of log2(f_test/f_ref + 0.5)/ln 2, minus the synonymous-codon median (not a log2 … for the second.

Going from chain 1 L574N to chain 1 L574R, the screen value rises from 0.59 DMS score: mean over two replicates of log2(f_test/f_ref + 0.5)/ln 2, minus the synonymous-codon median (not a log2 … to 0.641 DMS score: mean over two replicates of log2(f_test/f_ref + 0.5)/ln 2, minus the synonymous-codon median (not a log2 ….

Going from chain 1 E547N to chain 1 E550Q, the screen value falls from -1.94 DMS score: mean over two replicates of log2(f_test/f_ref + 0.5)/ln 2, minus the synonymous-codon median (not a log2 … to -2.17 DMS score: mean over two replicates of log2(f_test/f_ref + 0.5)/ln 2, minus the synonymous-codon median (not a log2 ….

Compared with chain 1 V554W, chain 1 W536F is lower in screen value: -0.15 DMS score: mean over two replicates of log2(f_test/f_ref + 0.5)/ln 2, minus the synonymous-codon median (not a log2 … for the first, -0.302 DMS score: mean over two replicates of log2(f_test/f_ref + 0.5)/ln 2, minus the synonymous-codon median (not a log2 … for the second.

Compared with chain 1 W536S, chain 1 W536T is higher in screen value: -0.564 DMS score: mean over two replicates of log2(f_test/f_ref + 0.5)/ln 2, minus the synonymous-codon median (not a log2 … for the first, -0.062 DMS score: mean over two replicates of log2(f_test/f_ref + 0.5)/ln 2, minus the synonymous-codon median (not a log2 … for the second.

First: chain 1 T552R
Second: chain 1 A545C
The screen value of the first is lower: -1.02 DMS score: mean over two replicates of log2(f_test/f_ref + 0.5)/ln 2, minus the synonymous-codon median (not a log2 … for the first, -0.621 DMS score: mean over two replicates of log2(f_test/f_ref + 0.5)/ln 2, minus the synonymous-codon median (not a log2 … for the second.

Going from chain 1 A545K to chain 1 A545S, the screen value falls from 0.224 DMS score: mean over two replicates of log2(f_test/f_ref + 0.5)/ln 2, minus the synonymous-codon median (not a log2 … to 0.0984 DMS score: mean over two replicates of log2(f_test/f_ref + 0.5)/ln 2, minus the synonymous-codon median (not a log2 ….

First: chain 1 Y587A
Second: chain 1 Y587F
The screen value of the first is lower: -2.26 DMS score: mean over two replicates of log2(f_test/f_ref + 0.5)/ln 2, minus the synonymous-codon median (not a log2 … for the first, -0.234 DMS score: mean over two replicates of log2(f_test/f_ref + 0.5)/ln 2, minus the synonymous-codon median (not a log2 … for the second.

Going from chain 1 E540A to chain 1 L582R, the screen value falls from -0.942 DMS score: mean over two replicates of log2(f_test/f_ref + 0.5)/ln 2, minus the synonymous-codon median (not a log2 … to -1.77 DMS score: mean over two replicates of log2(f_test/f_ref + 0.5)/ln 2, minus the synonymous-codon median (not a log2 ….

First: chain 1 L582I
Second: chain 1 E555G
The screen value of the first is lower: -1.44 DMS score: mean over two replicates of log2(f_test/f_ref + 0.5)/ln 2, minus the synonymous-codon median (not a log2 … for the first, -0.256 DMS score: mean over two replicates of log2(f_test/f_ref + 0.5)/ln 2, minus the synonymous-codon median (not a log2 … for the second.

Compared with chain 1 E555D, chain 1 E555S is higher in screen value: -1 DMS score: mean over two replicates of log2(f_test/f_ref + 0.5)/ln 2, minus the synonymous-codon median (not a log2 … for the first, 0.724 DMS score: mean over two replicates of log2(f_test/f_ref + 0.5)/ln 2, minus the synonymous-codon median (not a log2 … for the second.

Going from chain 1 F553I to chain 1 P535L, the screen value falls from 0.88 DMS score: mean over two replicates of log2(f_test/f_ref + 0.5)/ln 2, minus the synonymous-codon median (not a log2 … to 0.129 DMS score: mean over two replicates of log2(f_test/f_ref + 0.5)/ln 2, minus the synonymous-codon median (not a log2 ….

First: chain 1 P535K
Second: chain 1 N549V
The screen value of the first is lower: -0.44 DMS score: mean over two replicates of log2(f_test/f_ref + 0.5)/ln 2, minus the synonymous-codon median (not a log2 … for the first, 1.32 DMS score: mean over two replicates of log2(f_test/f_ref + 0.5)/ln 2, minus the synonymous-codon median (not a log2 … for the second.

Going from chain 1 N549K to chain 1 E563C, the screen value falls from -0.863 DMS score: mean over two replicates of log2(f_test/f_ref + 0.5)/ln 2, minus the synonymous-codon median (not a log2 … to -0.992 DMS score: mean over two replicates of log2(f_test/f_ref + 0.5)/ln 2, minus the synonymous-codon median (not a log2 ….

Compared with chain 1 E563I, chain 1 A546T is higher in screen value: -1.57 DMS score: mean over two replicates of log2(f_test/f_ref + 0.5)/ln 2, minus the synonymous-codon median (not a log2 … for the first, 0.35 DMS score: mean over two replicates of log2(f_test/f_ref + 0.5)/ln 2, minus the synonymous-codon median (not a log2 … for the second.

Compared with chain 1 A546K, chain 1 A546D is higher in screen value: -0.851 DMS score: mean over two replicates of log2(f_test/f_ref + 0.5)/ln 2, minus the synonymous-codon median (not a log2 … for the first, 0.862 DMS score: mean over two replicates of log2(f_test/f_ref + 0.5)/ln 2, minus the synonymous-codon median (not a log2 … for the second.

Compared with chain 1 T538F, chain 1 T538E is lower in screen value: 0.0744 DMS score: mean over two replicates of log2(f_test/f_ref + 0.5)/ln 2, minus the synonymous-codon median (not a log2 … for the first, -0.61 DMS score: mean over two replicates of log2(f_test/f_ref + 0.5)/ln 2, minus the synonymous-codon median (not a log2 … for the second.

Compared with chain 1 D542C, chain 1 I559L is lower in screen value: 0.23 DMS score: mean over two replicates of log2(f_test/f_ref + 0.5)/ln 2, minus the synonymous-codon median (not a log2 … for the first, -0.0963 DMS score: mean over two replicates of log2(f_test/f_ref + 0.5)/ln 2, minus the synonymous-codon median (not a log2 … for the second.

Compared with chain 1 K576N, chain 1 K576S is higher in screen value: -0.58 DMS score: mean over two replicates of log2(f_test/f_ref + 0.5)/ln 2, minus the synonymous-codon median (not a log2 … for the first, -0.288 DMS score: mean over two replicates of log2(f_test/f_ref + 0.5)/ln 2, minus the synonymous-codon median (not a log2 … for the second.

Going from chain 1 E575A to chain 1 Y541Q, the screen value falls from 0.223 DMS score: mean over two replicates of log2(f_test/f_ref + 0.5)/ln 2, minus the synonymous-codon median (not a log2 … to -2.54 DMS score: mean over two replicates of log2(f_test/f_ref + 0.5)/ln 2, minus the synonymous-codon median (not a log2 ….

First: chain 1 N556K
Second: chain 1 N556S
The screen value of the first is lower: -0.169 DMS score: mean over two replicates of log2(f_test/f_ref + 0.5)/ln 2, minus the synonymous-codon median (not a log2 … for the first, 0.415 DMS score: mean over two replicates of log2(f_test/f_ref + 0.5)/ln 2, minus the synonymous-codon median (not a log2 … for the second.

Going from chain 1 D548S to chain 1 D548L, the screen value falls from 0.431 DMS score: mean over two replicates of log2(f_test/f_ref + 0.5)/ln 2, minus the synonymous-codon median (not a log2 … to -0.0418 DMS score: mean over two replicates of log2(f_test/f_ref + 0.5)/ln 2, minus the synonymous-codon median (not a log2 ….

First: chain 1 I560V
Second: chain 1 I560Q
The screen value of the first is higher: 0.522 DMS score: mean over two replicates of log2(f_test/f_ref + 0.5)/ln 2, minus the synonymous-codon median (not a log2 … for the first, -0.419 DMS score: mean over two replicates of log2(f_test/f_ref + 0.5)/ln 2, minus the synonymous-codon median (not a log2 … for the second.
